The data set can be described thus: protein stability index of a GFP-peptide fusion (yeast GPS) (PSI 1-4); higher = more stable; sorted into four equal gates, so the index is relative within each strain. The essentials:
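Plasmids isolated from each sorting gate were PCR-amplified and Illumina-sequenced, and barcodes assigned the reads to strains. The gates, four of equal size, were set by GFP/Cherry fluorescence ratio on mid-log cultures in leucine-free medium. These cultures were yeast carrying a pooled library of tiled 17-residue yeast protein peptides fused downstream of GFP on a plasmid that also expresses Cherry. The protein stability index is the sum of every gate's read frequency times its gate number.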

± gives the uncertainty stated by the source.

In turn, KRELKRAQEEVKRIQSV [RPT3] gave a protein stability index (doa10∆) of 3.23 ± 0.096, a protein stability index (pdr5∆) of 3.39 ± 0.14, a protein stability index (san1∆) of 2.91 ± 0.096 and a protein stability index (ubr1∆) of 3.38 ± 0.083.

In the case of KRIHSVRTRGGNKKYRA [RPS8A], the protein stability index by setting is: (doa10∆) 2.509 ± 0.024; (pdr5∆) 2.621 ± 0.022; (san1∆) 2.626 ± 0.025; (ubr1∆) 2.591 ± 0.018.

As for KRKLLEHRRYDDQLKQR [RPT4], the protein stability index runs as follows: (doa10∆) 2.04 ± 0.27; (pdr5∆) 2.1 ± 0.22; (san1∆) 1.42 ± 0.23; (ubr1∆) 1.92 ± 0.17.

As to KRLADGLSVTQKVFVRS [DIS3], the protein stability index reads like this: (doa10∆) 1.85 ± 0.077; (pdr5∆) 2.38 ± 0.076; (san1∆) 1.93 ± 0.12; (ubr1∆) 1.93 ± 0.06.

The sequence KRMLLSLSEFARRRQPT [SNF2] yielded a protein stability index (doa10∆) of 2.26 ± 0.15, a protein stability index (pdr5∆) of 2.63 ± 0.13, a protein stability index (san1∆) of 1.77 ± 0.25 and a protein stability index (ubr1∆) of 2.58 ± 0.092.

For the sequence KRNGSTLEQKVNLENPI [FAS1], the protein stability index (doa10∆) worked out at 2.2 ± 0.098, the protein stability index (pdr5∆) turned out to be 2.37 ± 0.12, the protein stability index (san1∆) is 2.21 ± 0.11 and the protein stability index (ubr1∆) came to 3.09 ± 0.089.

In the case of KRNKLLTIFDSVDESAR [YJL039C/NUP192], the protein stability index is, setting by setting: (doa10∆) 2.26 ± 0.07; (pdr5∆) 2.37 ± 0.072; (san1∆) 2.32 ± 0.061; (ubr1∆) 2.36 ± 0.066.

Sequence KRRFDPSSSDSNGPRAA [RRP6] displayed a protein stability index (doa10∆) of 3.25 ± 0.073, a protein stability index (pdr5∆) of 3.31 ± 0.089, a protein stability index (san1∆) of 3.21 ± 0.048 and a protein stability index (ubr1∆) of 3.33 ± 0.052.

In the case of KRTICKKCHRLLWTPKK [RPR2], the protein stability index was 2.42 ± 0.051 (doa10∆), 2.45 ± 0.05 (pdr5∆), 2.81 ± 0.048 (san1∆) and 2.26 ± 0.037 (ubr1∆).

As for KRVSGTSQHSDSLTQNN [YOR098C/NUP1], the protein stability index (doa10∆) amounted to 2.5 ± 0.088, the protein stability index (pdr5∆) is 2.71 ± 0.055, the protein stability index (san1∆) came out at 2.73 ± 0.072 and the protein stability index (ubr1∆) worked out at 2.68 ± 0.054.

In the case of KSESPSEVLVDTLDSKS [ISW2], the protein stability index runs as follows: (doa10∆) 2.98 ± 0.067; (pdr5∆) 3.11 ± 0.068; (san1∆) 2.96 ± 0.075; (ubr1∆) 3.24 ± 0.056.

With KSFANHTEDEQIEKKKI [SIR4], the protein stability index (doa10∆) stood at 2.96 ± 0.14, the protein stability index (pdr5∆) was 2.28 ± 0.087, the protein stability index (san1∆) was 2.66 ± 0.096 and the protein stability index (ubr1∆) was 2.13 ± 0.048.

Turning to KSGKTIVITSITGGIIE [RRP43], the protein stability index runs as follows: (doa10∆) 1.6 ± 0.072; (pdr5∆) 1.84 ± 0.077; (san1∆) 2.07 ± 0.1; (ubr1∆) 1.78 ± 0.1.

As for KSHNAHVRCGTAFALGI [RPN2], the protein stability index (doa10∆) is 1.72 ± 0.27, the protein stability index (pdr5∆) was 2.41 ± 0.1, the protein stability index (san1∆) stood at 2.18 ± 0.14 and the protein stability index (ubr1∆) was 1.8 ± 0.075.

Regarding KSLEEQEYAIEMKIGSI [SMC1], the protein stability index was determined as 2.71 ± 0.11 (doa10∆), 3.23 ± 0.18 (pdr5∆), 2.67 ± 0.11 (san1∆) and 2.66 ± 0.2 (ubr1∆).

Regarding KSNDSEGDFLKSIIGKL [POP1], the protein stability index by setting is: (doa10∆) 1.28 ± 0.12; (pdr5∆) 2.91 ± 0.088; (san1∆) 1.93 ± 0.11; (ubr1∆) 1.3 ± 0.15.

Regarding KSSSNRSCVSNSNENGT [RPN4], the protein stability index is, setting by setting: (doa10∆) 3.02 ± 0.06; (pdr5∆) 3.08 ± 0.07; (san1∆) 3.01 ± 0.05; (ubr1∆) 3.03 ± 0.048.

KTAEQVAAERAARKAAN [RPL7A] yielded a protein stability index (doa10∆) of 2.94 ± 0.091, a protein stability index (pdr5∆) of 2.92 ± 0.06, a protein stability index (san1∆) of 2.78 ± 0.062 and a protein stability index (ubr1∆) of 2.56 ± 0.052.

For KTAFKPHELTESVLPAA [QCR2], the protein stability index turned out to be 2.36 ± 0.049 (doa10∆), 2.69 ± 0.051 (pdr5∆), 2.62 ± 0.057 (san1∆) and 2.8 ± 0.038 (ubr1∆).

With KTANSSSDAFEKLKVNM [YIL149C/MLP2], the protein stability index was found to be 2.46 ± 0.053 (doa10∆), 2.54 ± 0.065 (pdr5∆), 2.95 ± 0.065 (san1∆) and 3.02 ± 0.051 (ubr1∆).

KTERVEDQKVVDKALLA [RPL6B]: the protein stability index reads like this: (doa10∆) 1.52 ± 0.17; (pdr5∆) 1.43 ± 0.089; (san1∆) 1.38 ± 0.15; (ubr1∆) 1.19 ± 0.13.

Consider KTFCEDPFSDVDDDQDY [GRR1], for which the protein stability index reads like this: (doa10∆) 3.46 ± 0.17; (pdr5∆) 3.31 ± 0.099; (san1∆) 3.32 ± 0.048; (ubr1∆) 3.46 ± 0.1.

Regarding KTFDYVSDHLDAIYREL [SMC1], the protein stability index by setting is: (doa10∆) 3.31 ± 0.096; (pdr5∆) 3.34 ± 0.12; (san1∆) 3.37 ± 0.074; (ubr1∆) 3.12 ± 0.1.

In turn, KTKKLNLSAFKIVYIAP [BRR2] returned a protein stability index (doa10∆) of 2.13 ± 0.056, a protein stability index (pdr5∆) of 2.1 ± 0.052, a protein stability index (san1∆) of 2.19 ± 0.069 and a protein stability index (ubr1∆) of 2.27 ± 0.052.

In turn, KTLEKLESTIAETQGSK [IRR1] yielded a protein stability index (san1∆) of 1.39 ± 0.27.

For the origin of these results see the supplement of paper PMC9732359.
